Laboratory results reported in publication PMC7055376, “Evidence for binary Smc complexes lacking kite subunits in archaea” (IUCrJ, 2020).

Key:
[1] = molecular target: T1, (His)10-MBP-tagged Thermococcus onnurineus ScpA (TON_1071) (Thermococcus onnurineus, UniProt B6YWU6); experiment: His pull-down (Ni-NTA) and size-exclusion chromatography
T1 chain: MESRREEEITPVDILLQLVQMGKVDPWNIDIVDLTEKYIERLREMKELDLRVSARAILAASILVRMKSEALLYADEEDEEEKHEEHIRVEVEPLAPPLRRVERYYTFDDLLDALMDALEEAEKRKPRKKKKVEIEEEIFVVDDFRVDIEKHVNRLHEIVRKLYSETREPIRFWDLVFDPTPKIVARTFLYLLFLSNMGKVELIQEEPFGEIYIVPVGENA

[2] = molecular target: the molecule itself; experiment: SEC; individual ScpB homologue alone on Superdex 200 Increase 10/300 GL; 20 mM Tris-HCl pH 7.5, 100 mM NaCl, 1 mM DTT, 4°C; elution compared with 158 kDa and 43 kDa markers
[3] = molecular target: the molecule itself; experiment: crystal structure; SeMet-substituted full-length PYCH_12850; 35% pentaerythritol propoxylate, 0.1 M MES pH 5.5, 0.4 M NaCl, 22°C

B1: TON_1955 (putative Thermococcus onnurineus ScpB), untagged (protein)
chain: MGLLEDKALVEAALFVSGRPLSIKELSRALGIRSLDYLEKLIELIAAEYAERKSAIEVVRVLGDKYVMQVKQEYSQRVVHLMPRPDLRTGELKTLALIAYLQPIEQSKLVKLRGSQAYEHIRKLLEMGLIYAEPYERTKLLGTTPKFAELYGFPENDPMMIKEAFKKVVHAEYSDLIAKLEGKEEKEEMPQESEE
[1]
  binding result: no binding

B2: Metli_0606 (sole ScpB homologue of Methanofollis liminatans), untagged (natural protein, UniProt J1ANV5 1-161, looked up)
chain: MVDRTAMLEAALFVADAPVSYGDLAKIFGIKPGEVPALAQELSGRLSARSSPLEVIDSGESVFMVLKEEYAVLVYPVMRPEISRAVLRTLSVIAYRQPILQSDLIEIRGGGAYAHVEELVKRDLVARYRSGRSYLLQTTPEFSRYFKTSDLVGGQGRLDID
notes: ScpB homologue Metli_0606 of Methanofollis liminatans; untagged in the assays; also called ScpB homologue Metli_0606; source: E. coli BL21 (DE3) RIPL, purified
[2]
  stoichiometry N: 2

B3: Selenomethionine-substituted full-length PYCH_12850 (crystallised) (natural protein, Pyrococcus yayanosii, UniProt F8AFC4 1-192, looked up)
chain: MGLLEDKALVEAALFVAGRPLSLKELSKALGIKSLEYLEKLIELIASEYEERKSAIEVVKVLGDKWVMQLKQEYSQKVIHLMPKPELRAGELKTLALIAYLQPVEQSKIIKLRGSQAYEHIKKLLEMGLIYAEPYERTKLLGTTQKFAELYGFPENDPELIKEAFKKVIHSEYADLMEKIEKNNRKDKREEA
modifications: selenomethionine in place of methionine
notes: ScpB homologue PYCH_12850 of Pyrococcus yayanosii, full length; homodimer in the crystal; also called PYCH_12850 (SeMet); ScpB from Pyrococcus yayanosii; source: E. coli B834 (DE3) RIL, purified
[3]
  binding result: binds
